Laboratory results reported in the nanobody polyreactivity screen of Harvey et al. (2022).

Assay: yeast display, Sf9 membrane polyspecificity reagent, FACS + sequencing; frameworks hold sequencing errors
Procedure, shortened: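 Nanobodies came from a synthetic yeast display library in Saccharomyces cerevisiae BJ5465, induced with galactose for 36–48 hours and stained for 1 hour at 4 °C with 10% biotinylated, detergent-solubilized Sf9 membrane reagent. Cells were enriched on streptavidin microbeads and then FACS-sorted, with low and high (top ~1%) gates set on anti-HA fluorescence for expression and streptavidin fluorescence for reagent binding. Each polyreactivity label reflects the gate a clone came from. Genes were amplified by colony PCR, sequenced by MiSeq 2 × 250 and filtered by CDR length.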

| Sequence | polyreactivity (PSR sort gate) |
| --- | --- |
| QDHLVESGGGLVQAGGSLRLSCAASGFIFRGNAMGWYRQPPGKERELVAAISRRGGTTYYADCVKGRFTISRDNAKNTDYLQMNSLKPEDTAVYYCAAYSPLSSGMDSWGQGTQVTVSS | high polyreactivity |
| QVQLVESGGGLVQAGGSLRLSCAASGYTFWQYAMGWYRQAPGKERELVAAISGSGGRTYYADSVKGRFTISRDNAKNPVYLQMHSLKPEDTAVYYCAVGYRTPYLSRGGYWGQGTQVTVSS | high polyreactivity |
| QVQLVDSGGGLVQAGGSLRLSCAASGLIFDSYDMGWYRQEPGKERELVSPIRRNGGSTYYADSVKGRFTISRDNAMYTVYLQMNSLKPEDTAVYYCAVDNSGYCGVYWVKMDYWGQGSQVTVSS | low polyreactivity |
| QVQLVESGGGLVQAGGSLRLSCAASGITFSFYAMGWYRQAPRKERELVAGITRSGGDTYYADSVKGRFTISRDNAKNTVYLQMNSLKPEDTAVYDCADAWFFYRRQYTFFAGRMDYWGQGTQVTVSS | high polyreactivity |
| QVQLVESVGGLVQAGGNLRLSCAASGIIFSRYALGWYRQAPGKERELVAAITRSGGDTYYADSVKGRFTISRDHAKNTVYLQMNSLKPEDTAVYYCAADRTWYPWVATGYYWGHGTQVTVSS | low polyreactivity |
| QVQLVESGGGLVQAGGSLRLSCAASARNFGYYAMGWYRPAPGKERELVAAISSGGNTYYADSVKGRFTISRDNAKNTVYLQMNSLKPEDTAVYYCNVVYVGWQYGYDYWGQGTQVTVSS | low polyreactivity |
| QVQLQESGGGLVQAGGSLRLSCSATGTIFTDRFMGWYRQAPGKERELVAGISPGTSTNYADSVKGRFTISRDNAKNTVYLQMNSLKPEDTAVYYCAADWSTGNTLPYWGQGTQVTVSS | high polyreactivity |
| QVQLVESGGGLDQAGGSLRLRCAASGIIFDYNGMGWYRQAPGKERELVAVISFSGSGTYYADSVKGRFTISRDNAKNTVYLHMNSLKPEDTAVYYCAADTGPYFEYEYWGQGTQVTVSS | low polyreactivity |
| QVQLEESGGGLVQAGGSLRLSCAASGRIFYDYAMGWYRKAPGKERELVATISWSAGIKYYADSVKGRFTISRDNAKNTVYLQMNSLKPEDTAVYYCAKVGRYTYSGQYDYWGQGTQVTVSS | high polyreactivity |
| QVQLVESGGGLVQAGGSLRLSCAASGNTFEFYAMGWYRQAPGKERELVAAISASGGRTYYADSVKGRFTISRDNAKNTVYLQMNSLKPEDTAVYYCAAVRKSTRFDYWGQGTQVTVSS | high polyreactivity |
| QVQLVESGGGLVQAGGSLRLSCAASGSTFPGYAMGWYRQAPGKERELVASIYTGGSTYYADSVKGRFTISRDNAKKTVYLQMHSLKPEDSAVYYCAADSYNVSSLMYYWGQGTQVTVSS | low polyreactivity |
| QVQLVESGGGLVQAGGSLRLSCAASGSTFSKYAMGCYRQAPGKERELVAAISSGGRTNYADSVKGRFTISRDNAKNTVYLQMNSLKPEDTAVYFCAALLGYWAYYYWGQGSQVTVSS | low polyreactivity |
| QDHLVESGGGLVQAGGSLRLSCAASGSTFGKNTMGWYRQAPGKERELVAAISRGVSTYYADSVKGSFTISRDNAKNTVYLQMNSLKPEDTAVYYCAAQEAYRWYGYYYWGQGTQVTVSS | high polyreactivity |
| QVQLVESGGGLVPAGGSLRLSCASSGITFRVYVMGWYRQAPGKESELVAPIDDNGGSTYYADSVKGRFTISRDNAKNTVYLQMNSLKPEDTAVYYCAKAIVYSLLEYGWVDYDDWGQGTQLTVSS | low polyreactivity |
| QVQLVESGGGLVQAGGSLRLSCASSGITFPGNAMGWYRQAPGKERELVAGISDGDSTNYADSVKGRFTISRDNAKNTVYLQMNSLKPEVTAVYYCNAQGTTETSGGGFFRGMDYWGQGTQVTVSS | low polyreactivity |
| QVQLVESGGGLVQAGGSLRLSCAASGRIFIAYAMGWYRQAPGKERELVAAITDDGGTNYADSVKGRFTISRDNAKNTVYLQMNSLKPEDTAVYYCAATYLIGYYYVWEYDYWGQGTHVTVSS | low polyreactivity |

| Sequence | polyreactivity (PSR sort gate) |
| --- | --- |
| QVQLVESGGGLVQAGGSLRLSCAASGITLYRYAMGCYRQAPGKERELVADISSGGGTTYYADSVKGRFTISRDNAKNTVYLQMNSLKPEDTAVYYCAADYGFRYPLYDYWGQGTQVTVSS | low polyreactivity |
| QVQLVESGGGLFQAGGSLRLSCAASGSIFDVNVMGWYRQAPGKERELVASINISGASTYYADSVTGRFTISRDNAKNTVYLQMNSLKPEDTAVYYCAVTYGVPSFRYGYWGQVTQVTVSS | low polyreactivity |
| QVQLVESGGGLVQAGGSLRLSCAASGRTFYGNAMGWYRQAPGKERELVAGITRGGSTYYADSVKGRFTISRDNAKNTVYLQMNSLKPEDTAVYYCAATRYYSWGSRGGYWGQGTQVTVSS | high polyreactivity |
| QVQLVESGGGLVQAGGSLRLSCAASGFTFVYYVMGWYRPAPGKERELVAAISWSGGRTYYADSVKGRFTISRDNAKNTVYLQMNSLKPDDTAVYYCAAVRPYYYPLPTVPNLPYDYWGQGTQVTVSS | high polyreactivity |
| QVQLVESGGGLVQAGGSLRLSCAASGRTCGSYAMGWYRQAPGKERELVAAISLSAGSTYYADSVKGRFTISRDNAKNTVYLQMNSLKPEDTAVYYCAAGTQWYSQVYIYYYWGQGTQVTVSS | low polyreactivity |
| QVQLVESGGGLVQAGGSLRLSCAASGRTFGRYVMGWYIQAPGKERELVAAIRWSGGTTYYADSVKGRFTISRDNAKNTVYLQMNSLKPEDTAVYYCAARWGPYYGGVRYGYWGQGTQVTVSS | high polyreactivity |
| QVQHVESGGVLVQAGGSLRLSCAASGSTFARNALGWYRQAPGKETELVAAITTRGSSTYYADSVKGRFTISRDKAKNTVYLQLYSLKPEDTAVYYCAAVSRRSWYWGGYRQNGMGYWGQGTQVTVSS | high polyreactivity |
| QVHLVESGGGLVQAGGSLRLSCAASGIIFYDNTMGWYRQAPGTERELVASITWRGGSTYYADSVKGRFTISRDNAKNTVYLQMNSLKPEDTAVYYCNADSSDDYDYWGQGTQVTVSS | low polyreactivity |
| QVQLVESGGGLVQAGGSLRLSCAASGSIFKYYAMGWYRQAPGKERELVAAITSGGSTSYADSVKGRFTISRDNAKNTVYLQMNSLKPEDTAVYYCAASGNSYRLRYWWSELDYWGQGTQVTVSS | high polyreactivity |
| HVQLVESGGGIVQAGGSLRLSSAASGSTFGSNAMGWYRQAPGKERELVAAITYSGGRTYYADSVKGRFTISRDNAKNTVYLQMNSLKPEDTAVYYCAATFGFFYYQYDYWGQGTQVTVSS | low polyreactivity |
| QVQLEESGGGLFQAGGSLRLSCAASGRIFYGYAMGWSRQAPGKEMELVAAISSSGGSTYYADSVKGRFTISRDNAKNTVYLQRNSLKPEDTAVYYCNAKRYRPGYWYDYWGQGTQVTVSS | high polyreactivity |
| QVQLVESGGGLVQAGGILRLSCAASGRIFRFYTMGWYRQAPGKERELVAAITSSGRTYYADSVKGRVTISRDNAKNTVYLQMNSLKPEDTAVYYCNKYFRPRTILASPGEYWGQGTQVTVSS | high polyreactivity |
| QVQLVESGVGLVQAGGSLRLSCAASGLTFYSYAMGWSRQAPGKERELVATISRNGGPTRYADSVKGRFTISRDNAKNTVYLQMNSLKPEDTAVYYCTYVQSGEYDYWGQGTQVTVSS | high polyreactivity |
| QVQLVESGGGLVQAGGSLRLSCAASGRIFHGYAMGWYRQAPGKESELVAAISSGGRTNYADSVKGRFTISRDNAKYTVYLQMNSLKPEDTAVYYCAAPVLTSDYTLDSYYWGQGTQVTVSS | high polyreactivity |
| QVQLVESGGGLVQAGGSLRLSCAASGRIFYFYALGWYRQAPGKERELVAAIDSGGSTYYADSVKGRFTISRDNAKNTVYLQMNSLKPEDTAVYYCNADGFYSWLYDYWGQGTQVTVSS | low polyreactivity |
